PMC4441004, “Functional Characterization and Categorization of Missense Mutations that Cause Methylmalonyl‐CoA Mutase (MUT) Deficiency” (Human Mutation, 2014)

B1: MUT p.F573S (enzyme, human)
chain: LHQQQPLHPEWAALAKKQLKGKNPEDLIWHTPEGISIKPLYSKRDTMDLPEELPGVKPFTRGPYPTMYTFRPWTIRQYAGFSTVEESNKFYKDNIKAGQQGLSVAFDLATHRGYDSDNPRVRGDVGMAGVAIDTVEDTKILFDGIPLEKMSVSMTMNGAVIPVLANFIVTGEEQGVPKEKLTGTIQNDILKEFMVRNTYIFPPEPSMKIIADIFEYTAKHMPKFNSISISGYHMQEAGADAILELAYTLADGLEYSRTGLQAGLTIDEFAPRLSFFWGIGMNFYMEIAKMRAGRRLWAHLIEKMFQPKNSKSLLLRAHCQTSGWSLTEQDPYNNIVRTAIEAMAAVFGGTQSLHTNSFDEALGLPTVKSARIARNTQIIIQEESGIPKVADPWGGSYMMECLTNDVYDAALKLINEIEEMGGMAKAVAEGIPKLRIEECAARRQARIDSGSEVIVGVNKYQLEKEDAVEVLAIDNTSVRNRQIEKLKKIKSSRDQALAERCLAALTECAASGDGNILALAVDASRARCTVGEITDALKKVSGEHKANDRMVSGAYRQEFGESKEITSAIKRVHKFMEREGRRPRLLVAKMGQDGHDRGAKVIATGFADLGFDVDIGPLFQTPREVAQQAVDADVHAVGISTLAAGHKTLVPELIKELNSLGRPDILVMCGGVIPPQDYEFLFEVGVSNVFGPGTRIPKAAVQVLDDIEKCLEKKQQSV
notes: methylmalonyl-CoA mutase (MUT), human; construct 'hMUT' of Froese et al., 2010b with a patient missense mutation; Same construct limits as m1 (see its note); source: E. coli, purified (Ni-NTA, Superdex 200, TEV cleavage, reverse Ni-NTA)
B2: MUT p.M700K (enzyme, human)
chain: LHQQQPLHPEWAALAKKQLKGKNPEDLIWHTPEGISIKPLYSKRDTMDLPEELPGVKPFTRGPYPTMYTFRPWTIRQYAGFSTVEESNKFYKDNIKAGQQGLSVAFDLATHRGYDSDNPRVRGDVGMAGVAIDTVEDTKILFDGIPLEKMSVSMTMNGAVIPVLANFIVTGEEQGVPKEKLTGTIQNDILKEFMVRNTYIFPPEPSMKIIADIFEYTAKHMPKFNSISISGYHMQEAGADAILELAYTLADGLEYSRTGLQAGLTIDEFAPRLSFFWGIGMNFYMEIAKMRAGRRLWAHLIEKMFQPKNSKSLLLRAHCQTSGWSLTEQDPYNNIVRTAIEAMAAVFGGTQSLHTNSFDEALGLPTVKSARIARNTQIIIQEESGIPKVADPWGGSYMMECLTNDVYDAALKLINEIEEMGGMAKAVAEGIPKLRIEECAARRQARIDSGSEVIVGVNKYQLEKEDAVEVLAIDNTSVRNRQIEKLKKIKSSRDQALAERCLAALTECAASGDGNILALAVDASRARCTVGEITDALKKVFGEHKANDRMVSGAYRQEFGESKEITSAIKRVHKFMEREGRRPRLLVAKMGQDGHDRGAKVIATGFADLGFDVDIGPLFQTPREVAQQAVDADVHAVGISTLAAGHKTLVPELIKELNSLGRPDILVKCGGVIPPQDYEFLFEVGVSNVFGPGTRIPKAAVQVLDDIEKCLEKKQQSV
notes: as for B1
B3: MUT p.G648D (enzyme, human)
chain: LHQQQPLHPEWAALAKKQLKGKNPEDLIWHTPEGISIKPLYSKRDTMDLPEELPGVKPFTRGPYPTMYTFRPWTIRQYAGFSTVEESNKFYKDNIKAGQQGLSVAFDLATHRGYDSDNPRVRGDVGMAGVAIDTVEDTKILFDGIPLEKMSVSMTMNGAVIPVLANFIVTGEEQGVPKEKLTGTIQNDILKEFMVRNTYIFPPEPSMKIIADIFEYTAKHMPKFNSISISGYHMQEAGADAILELAYTLADGLEYSRTGLQAGLTIDEFAPRLSFFWGIGMNFYMEIAKMRAGRRLWAHLIEKMFQPKNSKSLLLRAHCQTSGWSLTEQDPYNNIVRTAIEAMAAVFGGTQSLHTNSFDEALGLPTVKSARIARNTQIIIQEESGIPKVADPWGGSYMMECLTNDVYDAALKLINEIEEMGGMAKAVAEGIPKLRIEECAARRQARIDSGSEVIVGVNKYQLEKEDAVEVLAIDNTSVRNRQIEKLKKIKSSRDQALAERCLAALTECAASGDGNILALAVDASRARCTVGEITDALKKVFGEHKANDRMVSGAYRQEFGESKEITSAIKRVHKFMEREGRRPRLLVAKMGQDGHDRGAKVIATGFADLGFDVDIDPLFQTPREVAQQAVDADVHAVGISTLAAGHKTLVPELIKELNSLGRPDILVMCGGVIPPQDYEFLFEVGVSNVFGPGTRIPKAAVQVLDDIEKCLEKKQQSV
notes: as for B1
B4: MUT p.R694L (enzyme, human)
chain: LHQQQPLHPEWAALAKKQLKGKNPEDLIWHTPEGISIKPLYSKRDTMDLPEELPGVKPFTRGPYPTMYTFRPWTIRQYAGFSTVEESNKFYKDNIKAGQQGLSVAFDLATHRGYDSDNPRVRGDVGMAGVAIDTVEDTKILFDGIPLEKMSVSMTMNGAVIPVLANFIVTGEEQGVPKEKLTGTIQNDILKEFMVRNTYIFPPEPSMKIIADIFEYTAKHMPKFNSISISGYHMQEAGADAILELAYTLADGLEYSRTGLQAGLTIDEFAPRLSFFWGIGMNFYMEIAKMRAGRRLWAHLIEKMFQPKNSKSLLLRAHCQTSGWSLTEQDPYNNIVRTAIEAMAAVFGGTQSLHTNSFDEALGLPTVKSARIARNTQIIIQEESGIPKVADPWGGSYMMECLTNDVYDAALKLINEIEEMGGMAKAVAEGIPKLRIEECAARRQARIDSGSEVIVGVNKYQLEKEDAVEVLAIDNTSVRNRQIEKLKKIKSSRDQALAERCLAALTECAASGDGNILALAVDASRARCTVGEITDALKKVFGEHKANDRMVSGAYRQEFGESKEITSAIKRVHKFMEREGRRPRLLVAKMGQDGHDRGAKVIATGFADLGFDVDIGPLFQTPREVAQQAVDADVHAVGISTLAAGHKTLVPELIKELNSLGLPDILVMCGGVIPPQDYEFLFEVGVSNVFGPGTRIPKAAVQVLDDIEKCLEKKQQSV
notes: as for B1
B5: MUT p.G717V (enzyme, human)
chain: LHQQQPLHPEWAALAKKQLKGKNPEDLIWHTPEGISIKPLYSKRDTMDLPEELPGVKPFTRGPYPTMYTFRPWTIRQYAGFSTVEESNKFYKDNIKAGQQGLSVAFDLATHRGYDSDNPRVRGDVGMAGVAIDTVEDTKILFDGIPLEKMSVSMTMNGAVIPVLANFIVTGEEQGVPKEKLTGTIQNDILKEFMVRNTYIFPPEPSMKIIADIFEYTAKHMPKFNSISISGYHMQEAGADAILELAYTLADGLEYSRTGLQAGLTIDEFAPRLSFFWGIGMNFYMEIAKMRAGRRLWAHLIEKMFQPKNSKSLLLRAHCQTSGWSLTEQDPYNNIVRTAIEAMAAVFGGTQSLHTNSFDEALGLPTVKSARIARNTQIIIQEESGIPKVADPWGGSYMMECLTNDVYDAALKLINEIEEMGGMAKAVAEGIPKLRIEECAARRQARIDSGSEVIVGVNKYQLEKEDAVEVLAIDNTSVRNRQIEKLKKIKSSRDQALAERCLAALTECAASGDGNILALAVDASRARCTVGEITDALKKVFGEHKANDRMVSGAYRQEFGESKEITSAIKRVHKFMEREGRRPRLLVAKMGQDGHDRGAKVIATGFADLGFDVDIGPLFQTPREVAQQAVDADVHAVGISTLAAGHKTLVPELIKELNSLGRPDILVMCGGVIPPQDYEFLFEVVVSNVFGPGTRIPKAAVQVLDDIEKCLEKKQQSV
notes: as for B1
B6: MUT p.P86L (enzyme, human)
chain: LHQQQPLHPEWAALAKKQLKGKNPEDLIWHTPEGISIKPLYSKRDTMDLPEELLGVKPFTRGPYPTMYTFRPWTIRQYAGFSTVEESNKFYKDNIKAGQQGLSVAFDLATHRGYDSDNPRVRGDVGMAGVAIDTVEDTKILFDGIPLEKMSVSMTMNGAVIPVLANFIVTGEEQGVPKEKLTGTIQNDILKEFMVRNTYIFPPEPSMKIIADIFEYTAKHMPKFNSISISGYHMQEAGADAILELAYTLADGLEYSRTGLQAGLTIDEFAPRLSFFWGIGMNFYMEIAKMRAGRRLWAHLIEKMFQPKNSKSLLLRAHCQTSGWSLTEQDPYNNIVRTAIEAMAAVFGGTQSLHTNSFDEALGLPTVKSARIARNTQIIIQEESGIPKVADPWGGSYMMECLTNDVYDAALKLINEIEEMGGMAKAVAEGIPKLRIEECAARRQARIDSGSEVIVGVNKYQLEKEDAVEVLAIDNTSVRNRQIEKLKKIKSSRDQALAERCLAALTECAASGDGNILALAVDASRARCTVGEITDALKKVFGEHKANDRMVSGAYRQEFGESKEITSAIKRVHKFMEREGRRPRLLVAKMGQDGHDRGAKVIATGFADLGFDVDIGPLFQTPREVAQQAVDADVHAVGISTLAAGHKTLVPELIKELNSLGRPDILVMCGGVIPPQDYEFLFEVGVSNVFGPGTRIPKAAVQVLDDIEKCLEKKQQSV
notes: as for B1
B7: MUT p.R694W (enzyme, human)
chain: LHQQQPLHPEWAALAKKQLKGKNPEDLIWHTPEGISIKPLYSKRDTMDLPEELPGVKPFTRGPYPTMYTFRPWTIRQYAGFSTVEESNKFYKDNIKAGQQGLSVAFDLATHRGYDSDNPRVRGDVGMAGVAIDTVEDTKILFDGIPLEKMSVSMTMNGAVIPVLANFIVTGEEQGVPKEKLTGTIQNDILKEFMVRNTYIFPPEPSMKIIADIFEYTAKHMPKFNSISISGYHMQEAGADAILELAYTLADGLEYSRTGLQAGLTIDEFAPRLSFFWGIGMNFYMEIAKMRAGRRLWAHLIEKMFQPKNSKSLLLRAHCQTSGWSLTEQDPYNNIVRTAIEAMAAVFGGTQSLHTNSFDEALGLPTVKSARIARNTQIIIQEESGIPKVADPWGGSYMMECLTNDVYDAALKLINEIEEMGGMAKAVAEGIPKLRIEECAARRQARIDSGSEVIVGVNKYQLEKEDAVEVLAIDNTSVRNRQIEKLKKIKSSRDQALAERCLAALTECAASGDGNILALAVDASRARCTVGEITDALKKVFGEHKANDRMVSGAYRQEFGESKEITSAIKRVHKFMEREGRRPRLLVAKMGQDGHDRGAKVIATGFADLGFDVDIGPLFQTPREVAQQAVDADVHAVGISTLAAGHKTLVPELIKELNSLGWPDILVMCGGVIPPQDYEFLFEVGVSNVFGPGTRIPKAAVQVLDDIEKCLEKKQQSV
notes: as for B1
B8: MUT p.V633G (enzyme, human)
chain: LHQQQPLHPEWAALAKKQLKGKNPEDLIWHTPEGISIKPLYSKRDTMDLPEELPGVKPFTRGPYPTMYTFRPWTIRQYAGFSTVEESNKFYKDNIKAGQQGLSVAFDLATHRGYDSDNPRVRGDVGMAGVAIDTVEDTKILFDGIPLEKMSVSMTMNGAVIPVLANFIVTGEEQGVPKEKLTGTIQNDILKEFMVRNTYIFPPEPSMKIIADIFEYTAKHMPKFNSISISGYHMQEAGADAILELAYTLADGLEYSRTGLQAGLTIDEFAPRLSFFWGIGMNFYMEIAKMRAGRRLWAHLIEKMFQPKNSKSLLLRAHCQTSGWSLTEQDPYNNIVRTAIEAMAAVFGGTQSLHTNSFDEALGLPTVKSARIARNTQIIIQEESGIPKVADPWGGSYMMECLTNDVYDAALKLINEIEEMGGMAKAVAEGIPKLRIEECAARRQARIDSGSEVIVGVNKYQLEKEDAVEVLAIDNTSVRNRQIEKLKKIKSSRDQALAERCLAALTECAASGDGNILALAVDASRARCTVGEITDALKKVFGEHKANDRMVSGAYRQEFGESKEITSAIKRVHKFMEREGRRPRLLVAKMGQDGHDRGAKGIATGFADLGFDVDIGPLFQTPREVAQQAVDADVHAVGISTLAAGHKTLVPELIKELNSLGRPDILVMCGGVIPPQDYEFLFEVGVSNVFGPGTRIPKAAVQVLDDIEKCLEKKQQSV
notes: as for B1

Target: the molecule itself
Test: SEC; Superdex 200 in the large-scale purification from E. coli; retention volumes of the mutants compared with wt MUT; data not shown

Stoichiometry N, 2:
B1
B2
B3
B4
B5
B6
B7
B8
